The target in the assay is serum antibodies (IgG) of Sardinian T1D patients, Example 1 (n=34; Ab+ sera) (human). Put plainly: competition ELISA on MAP3865c125-133-coated plates, sera pre-adsorbed with saturating peptide. For orientation: ELISA stands for enzyme-linked immunosorbent assay.

MIAVALAGL [MAP3865c125-133 peptide (…)] showed a percent inhibition of 57 to 89%.

Values taken from patent publication US20140271701A1.
